Here are results for 41 sequences from the nanobody polyreactivity screen of Harvey et al. (2022).

The data set in a line: yeast display, Sf9 membrane polyspecificity reagent, FACS + sequencing; frameworks hold sequencing errors. In a few lines: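 In a synthetic yeast display library (Saccharomyces cerevisiae BJ5465), nanobody expression was induced with galactose for 36–48 hours. FACS gates were set low and high (top ~1%) using anti-HA fluorescence for expression and streptavidin fluorescence for binding of the Sf9 membrane reagent. Each polyreactivity label is drawn from the gate of origin.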
On to “QVQLVESGGGLVQAGGSLRVSCAASGSIFHFYTMGWYRQAPGKERELVAAISSTGSTNYADSVKGRFTISRDNAKNTVYLQMNSLKPEDTAVYYCAAVGTYLAGYQFDYWGQGTQVTVSS”, for which the “polyreactivity (PSR sort gate)” value is reported as “low polyreactivity”.

For “QVQLVESGGGLVQAGGSLRVSCAASGSIFIVYAMGWYRQAPGKDRELVATISSGGSTNYAVSVKGRFTISRDNAKNTVYVQMNTLKPEATAVYYCAAESYWGSGLVPGYDYWGQGTQGTVSS”, the “polyreactivity (PSR sort gate)” value was “low polyreactivity”.

For “QVQLVESGGGLVQAGGSLRVSCAASGSIFSLYTMGWYRQAPGKERELVAAISGSGGRTYYADSVKGRFTISRDNAKNTVYLQMNSLKPEDTAVYYCAADTRSYTYYYWGQGTQVTVSS”, the “polyreactivity (PSR sort gate)” value is reported as “high polyreactivity”.

Regarding “QVQLVESGGGLVQAGGSLRVSCAASGSIFSYYDMGWYRPAPGKERELVAAITDGGDRTYYADSVKGRFTISRDNAKNTVYLQMNSLKPEHTAVYYCAAVVSVNMYWGQGTQVTVSS”, the “polyreactivity (PSR sort gate)” value is “low polyreactivity”.

Turning to “QVQLVESGGGLVQAGGSLRVSCAAYGRTFYRNTMGWYRQAPGKEREFVAAISATAGRTYYADSVKGRFTFSRDNAKNTVYLQKNSLKPEDTAVYYCAAVPLRNRWPNSWPALDYWGQGTQVTVSS”, the “polyreactivity (PSR sort gate)” value is on record as “high polyreactivity”.

For the sequence “QVQLVESGGGLVQAGGSLSLICAASGFIFDVYAMGWYRQAPGKERELVAAISRSGGSTHYADSVKGRFTISRDNAKNTVYLQMNSLKPEDTAVYYFATRIRVGYAKYDYWGQGTQVTVSS”, the “polyreactivity (PSR sort gate)” value is on record as “high polyreactivity”.

Regarding “QVQLVESGGGLVQAGGSLSLICAASGFTFYIYAMGWSRQAPRKERELVAAISSSGGSTYYADSVKGRFTISRDNAKITVYLQMNSLKPEDTAVYYCARRLLRGSDWGQGTQVTVSS”, the “polyreactivity (PSR sort gate)” value was “high polyreactivity”.

Take “QVQLVESGGGLVQAGGSLSLICAASGGTFERYAMGWYRQAPGKERELVAAISRSGGRTYYADSVKGRFTISRDNAKNSVYLQMNSLKPEDTAVYYCNSLGRYRMDYWGQGTQVTVSS”: the “polyreactivity (PSR sort gate)” value is reported as “high polyreactivity”.

Take “QVQLVESGGGLVQAGGSLSLICAASGLIFKYNDMGWYRQAPGKERELVAAISTSGGSTYYADSVKGRFTISRDNAKNTVYLQMNSLKPEDTAVYYCNARRQRNKSYNYWGQGTQVTVSS”: the “polyreactivity (PSR sort gate)” value was “high polyreactivity”.

As to “QVQLVESGGGLVQAGGSLSLICAASGSTFRYYTMGWYRQAPGKERELVAVISRSDDSTYADSVKGRFTISRDNAKNTVYLQMNSLKPVDTAVYYCAAAGGLFFRSTVPRGDFWGQGTQVTVSS”, the “polyreactivity (PSR sort gate)” value is listed as “low polyreactivity”.

On to “QVQLVESGGGLVQAGGSLSLICAASRFTFDSYAMGWYRQAPGKERELVAAINYSGGRTDYADSVKGRFTISRDNAKNTVYLQMNSLKPVDTAVYYCAAKGVRWGQGTQVTVSS”, for which the “polyreactivity (PSR sort gate)” value is on record as “high polyreactivity”.

Consider “QVQLVESGGGLVQAGGSLSLICDASRFTFGFYAMGWYRQAPGKERELHAAISTTVGSTYYADSVKGRFTISRDNAKNTVYLQMNSLKPEDTAVFYCAAEYTGYINYYIYEYWRQGTQVTVSS”, for which the “polyreactivity (PSR sort gate)” value is given as “low polyreactivity”.

On to “QVQLVESGGGLVQAGGSLSLMCAASGGIFPRYTRGWYRQAPGKEREMVASISRSGASTYYADSVKGRFTISRDNAKNTVYLQMNSLKTEDTAVYYCNARFVTGYWYIWENYWGQGTQVTVSS”, for which the “polyreactivity (PSR sort gate)” value is reported as “high polyreactivity”.

With “QVQLVESGGGLVQAGGSLSLRCAASGRTVGSYAMVWYRQAPGKERELVAVINGDGSTYYADSVKGRFTISRDNAKNTVYFQMNSLKPVDTAVYYCNNVSFYLGTRRVSLKHYYWGQGTQVTLSS”, the “polyreactivity (PSR sort gate)” value is on record as “low polyreactivity”.

Consider “QVQLVESGGGLVQAGGSLSLRCASSGSTFAYYAMGWYRQAPGKERELVAGNNWTGGSTYYADSVKGRFTISRDNAKNTVYLQMNSLKPEDTAVYYCAVTYPYGYEYDHWGQGTQVTVSS”, for which the “polyreactivity (PSR sort gate)” value is reported as “low polyreactivity”.

Take “QVQLVESGGGLVQAGGSLSLSCAASGFIFLASAMGWYRQAPGKERELVAAISSGSSTSYADSLKGRFTISRDNAKNTVYLQMNSLKPEDTAVYYCNAVPSFANLTWESYDYWGQGTQVTVSS”: the “polyreactivity (PSR sort gate)” value is on record as “low polyreactivity”.

For the sequence “QVQLVESGGGLVQAGGSLSLSCAASGFTFEKNAMGWYRQAPGKERELVAAITSGGSTYYADSVKGRFTISRDNAKNTVYLQMNSLKPEDTAVYYCNAYYTYRFNYWGQGTQVTVSS”, the “polyreactivity (PSR sort gate)” value was “high polyreactivity”.

In the case of “QVQLVESGGGLVQAGGSLSLSCAASGFTIYYYAMGWYRQAPGKERELVASITSGGSTYYADSVKGRFTISRDNAKNTVYLQMNSLKPEDTAVYYCAKTRFHSKEGDYWGQGTQVTVSS”, the “polyreactivity (PSR sort gate)” value is listed as “low polyreactivity”.

As to “QVQLVESGGGLVQAGGSLSLSCAASGFTLRFYTMGWYRQAPGKERELVADITWSGASTYYADSVKGRFTISRDNAKNTVYLQMKSLKPEDTAVYYCNAEDRYWSYSVGAPYNYWGQGTQVTVSS”, the “polyreactivity (PSR sort gate)” value is given as “low polyreactivity”.

With “QVQLVESGGGLVQAGGSLSLSCAASGIIFGRNALGWYRQAPGKEREMVAGITRRGARTYYADSVKGRFTISRDNAKNTVDLQMNSLKPEDTAVYYCATYSVQTDYGRGDYWGQGTQVTVSS”, the “polyreactivity (PSR sort gate)” value is listed as “high polyreactivity”.

As to “QVQLVESGGGLVQAGGSLSLSCAASGITFEWYAMGWYRQAPGKERELVAAISTSGGSTYYADSVKGRFTISRDNEKNTVYLQMNSLKPEDTEVYYCNTVSYGYSSKLYDYWGHGTQVTVSS”, the “polyreactivity (PSR sort gate)” value is given as “high polyreactivity”.

“QVQLVESGGGLVQAGGSLSLSCAASGITFSGNAMGWYRQAPGKERELVAAITWRGDNTYYADSVKGRFTISRDNAKNTVYLQMNSLKPEDTAVYYCAAKSPLFGLTSYPGPDDSWGQGTQVTVSS”: the “polyreactivity (PSR sort gate)” value is on record as “low polyreactivity”.

For “QVQLVESGGGLVQAGGSLSLSCAASGLTFSWYTMGWYRPAPGKERELVAAISWSGVSTYYADSVMGRFTISRDNAKNTVYLQMNSLKPEDTAVYYCAAAKTGRGRGTTGYGYWGQGTQVTVSS”, the “polyreactivity (PSR sort gate)” value was “high polyreactivity”.

Consider “QVQLVESGGGLVQAGGSLSLSCAASGNTFWGYAMGWYRQAPGKEREFVARINWSGGRTYYAESVKGRFTISRDNAKNTVYLQMNSLKPEDTAVYYCAATSLIYGYRTYDYWGQGTQVTVSS”, for which the “polyreactivity (PSR sort gate)” value is “high polyreactivity”.

For “QVQLVESGGGLVQAGGSLSLSCAASGRIFRRYAMGWYRPAPGKERELVASISSGGSTNYADSVKGRFTISRDNAKNTVYLQMNSLKPEDTAVYYCDADRARYYYQAYGAYGYWGQGTQVTVSS”, the “polyreactivity (PSR sort gate)” value is reported as “high polyreactivity”.

For the sequence “QVQLVESGGGLVQAGGSLSLSCAASGRIFSWYDMGWYRQAPGKERELVAAISSGGSTKYADSVKGRFTISRDNAKNTVYLQMNCLKPEDTAVYYCAARLPRRYTREGYWGQGTQVSVSS”, the “polyreactivity (PSR sort gate)” value is “high polyreactivity”.

For “QVQLVESGGGLVQAGGSLSLSCAASGRILSLNAMGWYRQAPGKERELVAGIRKRGGSTYYADSVKGRFTISRDNAKNTVYLQMNSLKPEDTAVYYCAADGTLFSEYYWFFGYHDYWGQGTQVNVSS”, the “polyreactivity (PSR sort gate)” value is listed as “high polyreactivity”.

Turning to “QVQLVESGGGLVQAGGSLSLSCAASGRSWFGNAMGWYRQAPGKERELVASISTRGGSTYYADSVKGRFTISRDNAKNTVYLQMNSLKPEDTAVYYCAKRGRDRRIYGYWGQGTQVTVSS”, the “polyreactivity (PSR sort gate)” value is “high polyreactivity”.

“QVQLVESGGGLVQAGGSLSLSCAASGRTFANYAMGWYRHAPGKETEFVAVITYSGGNTYYADSVKGRFTISRDNAKNTVYLQMNSLKPEDTAVYYCAKGRPYRNGLYYYWGQGTQVTVSS”: the “polyreactivity (PSR sort gate)” value is given as “high polyreactivity”.

For “QVQLVESGGGLVQAGGSLSLSCAASGRTFGYNAKGWYRQAPGKERELVASISYRGGSTYYADSVKGRFTISRDNAKNSVYLQMNSLKPEDTAVYYCNKYYVLREYYWGQGTQVTVSS”, the “polyreactivity (PSR sort gate)” value is on record as “high polyreactivity”.

Turning to “QVQLVESGGGLVQAGGSLSLSCAASGRTFKYYAMGWYRQAPGKERELVATITWSGTSTNYADSVKGRFTISRDNEKHTVYLQMNSLKPEDTAVYYCAARSKRRNYDYWGQGTQVTVSS”, the “polyreactivity (PSR sort gate)” value is given as “high polyreactivity”.

“QVQLVESGGGLVQAGGSLSLSCAASGRTFLIYAMGWYRQAPGKERELVAAITSGDNTYYADSVKGRFTISRDNAKNTVYLQMNSLKPEDTAVYYCAAGGYVRNYYTYEHWGQGTQVTVSS”: the “polyreactivity (PSR sort gate)” value is “low polyreactivity”.

For the sequence “QVQLVESGGGLVQAGGSLSLSCAASGRTFNSNAMGWYRQAPGKERELVAAISNRGTRTYYADSVKGRFTISRDNAKNTVYLQMNSLKPEDTAVYYCAASERDQRFKHYYWGQGTQVTVSS”, the “polyreactivity (PSR sort gate)” value is “high polyreactivity”.

As to “QVQLVESGGGLVQAGGSLSLSCAASGRTFSQYAMGWYRPAPGTERELVAAIDRTGDSTYYADSVKGRFTISRDNAKNTVYLQMNSLKPEDTAVYYCNRRYTRVRSRKGYDYWGQGTQVTVSS”, the “polyreactivity (PSR sort gate)” value is listed as “high polyreactivity”.

For the sequence “QVQLVESGGGLVQAGGSLSLSCAASGRTFVKNTMGWYRQAPGKERELVAAISSSGGSTYYADSVKGRFTISRDNAKNTVYLQMNSLKPEDTAVYYCAVSYPYKHAGGWYAYNYWGQGTLVTVSS”, the “polyreactivity (PSR sort gate)” value is on record as “high polyreactivity”.

With “QVQLVESGGGLVQAGGSLSLSCAASGRTFYAYAMGWYRQAPGTERELVACIDKSGGSPYYADSVKGRFTISRTMRRYRLFTDEQPETGRYRGLLLRCWCVVLSDIQFWGEFDYDYWGQGTQVTVSS”, the “polyreactivity (PSR sort gate)” value is given as “low polyreactivity”.

For the sequence “QVQLVESGGGLVQAGGSLSLSCAASGSIFAQYAMGWYRQAPGKERELVATISSVGSTNYADSVKGRFTISRANAKNTVYLQMNSLKPEDTAVYYCAADYRHDTFSNEYDYWGQGTQVTVSS”, the “polyreactivity (PSR sort gate)” value is given as “low polyreactivity”.

In the case of “QVQLVESGGGLVQAGGSLSLSCAASGSIFASYVMGWYRPAPGKEREMVAGIDTSGGSTFYADSVKGRFTISRDNAKNTVYLQMNSLKPEDTAVYYCAADTWYRGRWEFDYWGQGTQVTVSS”, the “polyreactivity (PSR sort gate)” value is “low polyreactivity”.

As for “QVQLVESGGGLVQAGGSLSLSCAASGSIFGTNAMGWYRQAPGKERELVAAISSSGASTYYADSVKGRFTISRDNAKNSVYLQMNSLKPEDTAVYYCARGYTYQSSSFYYWGQGTQVTVSS”, the “polyreactivity (PSR sort gate)” value is listed as “low polyreactivity”.

With “QVQLVESGGGLVQAGGSLSLSCAASGSIFYNYAMGWYRQAPGKEREFVAAISWSGDTTYYADSVKGRFTISRDNAKNTVYLQMNSLKPEDTAVYYCNADIYASEYYYWGQGTQVTVSS”, the “polyreactivity (PSR sort gate)” value was “low polyreactivity”.

For “QVQLVESGGGLVQAGGSLSLSCAASGSILVPYTMGWYRQAPGKERELVASISYSGGSTYADSVKGRFTISRDNAKNTVYLQMNSLKPEDTAVYYCAASLPPWYPGDDFYYWGQGTQVTVSS”, the “polyreactivity (PSR sort gate)” value is “low polyreactivity”.
